Experimental data reported in the RNAGym collection of RNA variant scans (doi:10.7554/elife.90254).

B1: LINE1-mini (parent)
chain: GGCAGAGCUCAACACAGCGUGGCAAAGUGGCUGUGGCUAGACUGCC

Variants of: B1
Test: self-cleavage, relative activity (ratio to wild type); higher = more cleavage; in vitro, sequencing; the parent is a self-cleaving ribozyme

Variant | self-cleavage
GGCAGAGCUCAAGACAGCGUGGCAAAGUGGCUGUGGCUAAACUGCC | 0.13
GGCAGAGCUCAAGACAGCGUGGCAAAGUGGCUGUGGCUAUACUGCC | 0.08
GGCAGAGCUCAAGACAGCGUGGCAAAGUGGCUGUGGCUACACUGCC | 0.14
GGCAGAGCUCAAGACAGCGUGGCAAAGUGGCUGUGGCUAGACCGCC | 0.02
GGCAGAGCUCAAGACAGCGUGGCAAAGUGGCUGUGGCUAGACAGCC | 0.11
GGCAGAGCUCAAGACAGCGUGGCAAAGUGGCUGUGGCUAGACGGCC | 0.66
GGCAGAGCUCAAGACAGCGUGGCAAAGUCGCUGUGGCUAGACUGCC | 0.11
GGCAGAGCUCAAGACAGCGUGGCAAAGUAGCUGUGGCUAGACUGCC | 0.19
GGCAGAGCUCAAGACAGCGUGGCAAAGUUGCUGUGGCUAGACUGCC | 0.33
GGCAGAGCUCAAGACAGCGUGGCAAAGUGGCUGUGGCUAGACUGCG | 0.19
GGCAGAGCUCAAGACAGCGUGGCAAAGUGGCUGUGGCUAGACUGCU | 0.46
GGCAGAGCUCAAGACAGCGUGGCAAAGUGGCUGUGGCUAGACUGCA | 0.28
GGCAGAGCUCAAGACAGCGUGGCAAAGUGGCUGUCGCUAGACUGCC | 0.81
GGCAGAGCUCAAGACAGCGUGGCAAAGUGGCUGUAGCUAGACUGCC | 0.07
GGCAGAGCUCAAGACAGCGUGGCAAAGUGGCUGUUGCUAGACUGCC | 0.85
GGCAGAGCUCAAGACAGCGUGGCAAAGUGGCUGUGGCUAGCCUGCC | 0.04
GGCAGAGCUCAAGACAGCGUGGCAAAGUGGCUGUGGCUAGGCUGCC | 0.09
GGCAGAGCUCAAGACAGCGUGGCAAAGUGGCUGUGGCUAGUCUGCC | 0.17
GGCAGAGCUCAAGAUAGCGUGGCAAAGUGGCUGUGGCUAGACUGCC | 0.15

Variant | self-cleavage
GGCAGAGCUCAAGAAAGCGUGGCAAAGUGGCUGUGGCUAGACUGCC | 0.1
GGCAGAGCUCAAGAGAGCGUGGCAAAGUGGCUGUGGCUAGACUGCC | 0.09
GGCAGAGCUCAAGACAGUGUGGCAAAGUGGCUGUGGCUAGACUGCC | 0.09
GGCAGAGCUCAAGACAGAGUGGCAAAGUGGCUGUGGCUAGACUGCC | 0.09
GGCAGAGCUCAAGACAGGGUGGCAAAGUGGCUGUGGCUAGACUGCC | 0.07
GGCAGAGCUCAAUACAGCGUGGCAGAGUGGCUGUGGCUAGACUGCC | 0.07
GGCAGAGCUCAAUACAGCGUGGCAUAGUGGCUGUGGCUAGACUGCC | 0.29
GGCAGAGCUCAAUACAGCGUGGCACAGUGGCUGUGGCUAGACUGCC | 0.13
GGCAGAGCUCAAGACAGCCUGGCAAAGUGGCUGUGGCUAGACUGCC | 0.06
GGCAGAGCUCAAGACAGCAUGGCAAAGUGGCUGUGGCUAGACUGCC | 0.2
GGCAGAGCUCAAGACAGCUUGGCAAAGUGGCUGUGGCUAGACUGCC | 0.11
GGCAGAGCUCAAUACAGCGUGGCAAAGUGGCUGUGGCUAGACUGCC | 0.17
GGCAGAGCUCAAGACAGCGUGGCAAAUUGGCUGUGGCUAGACUGCC | 0.26
GGCAGAGCUCAAGACAGCGUGGCAAACUGGCUGUGGCUAGACUGCC | 0.08
GGCAGAGCUCAAGACAGCGUGGCAAAAUGGCUGUGGCUAGACUGCC | 0.27
GGCAGAGCUCAAUACAGCGUGGCAAAGUGGCUGUGGCUAGUCUGCC | 0.15
GGCAGAGCUCAAUACAGCGUGGCAAAGUGGCUGUGGCUAGCCUGCC | 0.06
GGCAGAGCUCAAUACAGCGUGGCAAAGUGGCUGUGGCUAGGCUGCC | 0.06
GGCAGAGCUCAAUAAAGCGUGGCAAAGUGGCUGUGGCUAGACUGCC | 0.08

Variant | self-cleavage
GGCAGAGCUCAAGACAGCGUCGCAAAGUGGCUGUGGCUAGACUGCC | 0.33
GGCAGAGCUCAAGACAGCGUUGCAAAGUGGCUGUGGCUAGACUGCC | 0.31
GGCAGAGCUCAAGACAGCGUAGCAAAGUGGCUGUGGCUAGACUGCC | 0.38
GGCAGAGCUCAAGACAUCGUGGCAAAGUGGCUGUGGCUAGACUGCC | 0.06
GGCAGAGCUCAAGACAACGUGGCAAAGUGGCUGUGGCUAGACUGCC | 0.06
GGCAGAGCUCAAGACACCGUGGCAAAGUGGCUGUGGCUAGACUGCC | 0.03
GGCAGAGCUCAAGACAGCGUGGCAAAGCGGCUGUGGCUAGACUGCC | 0.36
GGCAGAGCUCAAGACAGCGUGGCAAAGAGGCUGUGGCUAGACUGCC | 0.28
GGCAGAGCUCAAGACAGCGUGGCAAAGGGGCUGUGGCUAGACUGCC | 0.35
GGCAGAGCUCAAGACAGCGUGGCAAAGUGGCUGUGGCUAGACUGAC | 0.25
GGCAGAGCUCAAGACAGCGUGGCAAAGUGGCUGUGGCUAGACUGUC | 0.26
GGCAGAGCUCAAGACAGCGUGGCAAAGUGGCUGUGGCUAGACUGGC | 0.23
GGCAGAGCUCAAGACAGCGUGGCAAAGUGGCUCUGGCUAGACUGCC | 0.04
GGCAGAGCUCAAGACAGCGUGGCAAAGUGGCUAUGGCUAGACUGCC | 0.11
GGCAGAGCUCAAGACAGCGUGGCAAAGUGGCUUUGGCUAGACUGCC | 0.03
GGCAGAGCUCAAGACAGCGUGGCAAAGUGGCUGGGGCUAGACUGCC | 0.03
GGCAGAGCUCAAGACAGCGUGGCAAAGUGGCUGCGGCUAGACUGCC | 0.1
GGCAGAGCUCAAGACAGCGUGGCAAAGUGGCUGAGGCUAGACUGCC | 0.04
